Results on one substance are retold here after WO2009041734A1.

For this experiment, the target named is human thrombopoietin receptor (human c-Mpl) (human) (UniProt P40238). Nature of the experiment: cell-based or functional assay.

“PEG-rHuMGDF (Pegylated Recombinant Human Megakaryocyte Growth and Development Factor) (ligand)” registered a UT7/TPO (Max) of 100%.
